Measurements: publication PMC5903968 (FEBS letters, 2018)

What was measured:
Experiment in all cases: enzyme inhibition assay
[1] = target: MMP-10 catalytic domain (MMP-10CAT) (UniProt P09238 99-263)
[2] = target: T1, human MMP-9 catalytic domain (MMP-9CAT), residues 107-215, 391-443 (human, UniProt P14780 107-215; P14780 391-443)
T1 chain (looked up): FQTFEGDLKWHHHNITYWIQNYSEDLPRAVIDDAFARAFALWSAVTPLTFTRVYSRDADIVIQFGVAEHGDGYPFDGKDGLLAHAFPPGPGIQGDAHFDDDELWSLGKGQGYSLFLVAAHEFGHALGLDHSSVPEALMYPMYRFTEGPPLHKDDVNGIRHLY

[3] = target: MMP-14 catalytic domain (MMP-14CAT) (UniProt P50281 114-287)
[4] = target: T2, MMP-1 catalytic domain (MMP-1CAT) (UniProt P03956 100-269)
T2 sequence (looked up): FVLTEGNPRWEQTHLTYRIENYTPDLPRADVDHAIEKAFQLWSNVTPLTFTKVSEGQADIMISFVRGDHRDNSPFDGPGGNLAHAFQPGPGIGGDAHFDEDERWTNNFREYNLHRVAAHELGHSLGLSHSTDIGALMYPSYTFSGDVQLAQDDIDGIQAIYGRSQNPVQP

MMP-10 catalytic domain (MMP-10CAT), sequence (P09238 99-263): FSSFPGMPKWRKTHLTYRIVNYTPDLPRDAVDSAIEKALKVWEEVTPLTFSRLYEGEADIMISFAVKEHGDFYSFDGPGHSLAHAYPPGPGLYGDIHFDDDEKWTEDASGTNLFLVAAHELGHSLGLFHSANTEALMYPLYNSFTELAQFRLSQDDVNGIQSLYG

B1: N-terminal domain of TIMP-2 (N-TIMP2), wild type (domain or fragment, UniProt P16035 27-152, looked up)
chain: CSCSPVHPQQAFCNADVVIRAKAVSEKEVDSGNDIYGNPIKRIQYEIKQIKMFKGPEKDIEFIYTAPSSAVCGVSLDVGGKKEYLIAGKAEGDGKMHITLCDFIVPWDTLSTTQKKSLNHRYQMGC
For B1, the Ki [1] was 4.3 nM, the Ki [2] was 0.12 nM and the Ki [3] was 2.52 nM. For the same binder, the Ki [4] was 0.25 nM.
